The values below come from patent US20230235011A1.

One may read the Kd as a measure of binding affinity in units of concentration. A word on the koff: it is the rate constant with which the complex falls apart. High values mean a short-lived complex, low ones a long-lived complex. The kon is a measure of how fast the partners come together. The low end stands for slower complex formation, the high end for faster complex formation. A word on the EC50: it is the concentration needed to bring the measured effect to its halfway point.

One test deals with VEGF165 (UniProt P15692). Kind of test: SPR (Biacore T100, 25 C); binder captured on anti-human IgG CM5 chip, VEGF165 as analyte.
VEGF165, sequence (P15692 other isoform, or with tags, fused parts or gaps limits assumed): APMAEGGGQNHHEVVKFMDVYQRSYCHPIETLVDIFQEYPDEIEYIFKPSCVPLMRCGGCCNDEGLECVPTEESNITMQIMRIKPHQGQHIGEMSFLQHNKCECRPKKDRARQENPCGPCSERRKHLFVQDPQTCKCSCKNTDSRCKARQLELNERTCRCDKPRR
Test [1] concerns the target recombinant human CD28 (human) (UniProt P10747). Kind of test: ELISA; CD28 coated at 100 ng/ml, fusion protein titrated, anti-human IgG Fc-HRP. In general terms: An ELISA detects its analyte on a solid surface through an enzyme-linked reagent.

control protein 301-8 (aflibercept) (Fc fusion), sequence (chain): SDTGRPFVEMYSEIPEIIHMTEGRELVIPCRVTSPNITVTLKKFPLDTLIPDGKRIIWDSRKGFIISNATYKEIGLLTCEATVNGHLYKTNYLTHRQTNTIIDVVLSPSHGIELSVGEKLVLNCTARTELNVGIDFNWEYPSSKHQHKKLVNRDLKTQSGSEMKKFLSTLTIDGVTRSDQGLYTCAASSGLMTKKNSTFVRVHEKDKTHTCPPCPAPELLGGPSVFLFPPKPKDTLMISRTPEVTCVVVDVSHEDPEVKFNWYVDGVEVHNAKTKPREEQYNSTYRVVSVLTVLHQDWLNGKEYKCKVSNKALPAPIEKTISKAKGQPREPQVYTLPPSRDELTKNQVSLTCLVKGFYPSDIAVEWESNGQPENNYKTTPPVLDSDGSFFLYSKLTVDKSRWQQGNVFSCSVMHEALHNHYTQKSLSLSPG
fusion protein BY24.23 (hCD80-Fc, IgG4) (Fc fusion), sequence (chain): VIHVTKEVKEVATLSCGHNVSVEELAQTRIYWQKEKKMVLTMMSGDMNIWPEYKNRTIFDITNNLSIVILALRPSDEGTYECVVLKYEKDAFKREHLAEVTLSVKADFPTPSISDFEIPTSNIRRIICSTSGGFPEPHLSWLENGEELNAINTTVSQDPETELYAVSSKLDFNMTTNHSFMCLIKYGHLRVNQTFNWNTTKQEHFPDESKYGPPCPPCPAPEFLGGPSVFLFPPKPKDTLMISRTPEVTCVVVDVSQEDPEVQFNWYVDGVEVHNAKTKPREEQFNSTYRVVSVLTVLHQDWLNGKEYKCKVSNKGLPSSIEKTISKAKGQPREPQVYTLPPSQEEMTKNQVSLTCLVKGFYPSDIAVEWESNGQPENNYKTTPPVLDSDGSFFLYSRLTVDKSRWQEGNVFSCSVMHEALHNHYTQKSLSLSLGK
fusion protein BY24.30 (Fc-hCD80, IgG4) (Fc fusion), sequence (chain): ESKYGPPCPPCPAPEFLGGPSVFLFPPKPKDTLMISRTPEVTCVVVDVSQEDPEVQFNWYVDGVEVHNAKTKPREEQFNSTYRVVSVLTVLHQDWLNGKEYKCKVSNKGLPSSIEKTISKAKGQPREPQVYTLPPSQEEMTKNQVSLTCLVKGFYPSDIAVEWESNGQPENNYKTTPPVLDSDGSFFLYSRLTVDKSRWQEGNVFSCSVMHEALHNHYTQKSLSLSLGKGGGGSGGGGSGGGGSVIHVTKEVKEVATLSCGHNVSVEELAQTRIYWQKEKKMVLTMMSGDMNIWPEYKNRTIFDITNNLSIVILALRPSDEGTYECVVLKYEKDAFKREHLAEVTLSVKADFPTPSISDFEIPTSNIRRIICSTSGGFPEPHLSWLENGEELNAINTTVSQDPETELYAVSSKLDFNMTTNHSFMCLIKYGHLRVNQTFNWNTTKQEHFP

In the test with VEGF165, “control protein 301-8 (aflibercept) (Fc fusion)” had an equilibrium dissociation constant (Kd) of 7.35 pM, a koff of 4.33e-05 s⁻¹ and a kon of 5.89e+06 M⁻¹ s⁻¹. As for “fusion protein BY24.23 (hCD80-Fc, IgG4) (Fc fusion)”, the EC50 in test [1] was 6.2 µg/mL. Same read-out and setting: for “fusion protein BY24.30 (Fc-hCD80, IgG4) (Fc fusion)” the value was 0.97 µg/mL.
